Assay results taken from US20120082688A1, “In Vitro Generation of Myeloid Derived Suppressor Cells” (MOUNT SINAI SCHOOL OF MEDICINE, priority 2008, published 2012).
“Also recorded” adds a separate entry of the source.

Assays:
[1] = system: HS-MDSC- and TD-MDSC-mediated suppression of T-cell proliferation; experiment: Suppression assay with iNOS inhibitor / arginase inhibitor: MDSCs co-incubated with B6 splenocytes, anti-CD3/anti-CD28, [3H]-thymidine; format: cell-based, mouse
Protocol: The suppressive activity of MDSCs was assessed either by co-culturing 1×10^5 129SvEv (using B6 for HSC-MDSCs comparison) splenocytes with various numbers of CD115^+ cells or […] in the presence of anti-CD3/anti-CD28 (0.5 μg/ml) or by co-culturing 2×10^5 129SvEv splenocytes (responder) with an equal number of irradiated (25 Gy) BALB/c splenocytes (stimulator) in the presence of various numbers of CD115^+ or CD115^− cells for 4 days. [^3H]-thymidine was added for the last 8 hours of incubation. For Treg induction, 4×10^6/well of 129SvEv (B6 for HSC-MDSCs) splenocytes and 1×10^6 CD115^+ or CD115^− cells were cocultured for 5 days in the presence of anti-CD3/anti-CD28 (0.5 μg/ml). Foxp3 expression was determined by intracellular staining and NO level in the supernatant was measured by Greiss reagents (Sigma-Aldrich, St. Louis, Mo.).
To delineate which of the aforementioned suppressive mechanism(s) play a major role, the functional activity of HS-MDSCs was evaluated when specific pathway(s) were interfered. To evaluate the role of iNOS, HS-MDSCs (developed from Lin− B6 BM cells) or TD-MDSCs were co-incubated with B6 splenocytes at a 1:2 ratio in the absence or presence of various concentrations of L-NMMA (L) or NOHA (N), or combination of L-NMMA and NOHA. Cells were stimulated with anti-CD3/anti-CD28 and [3H]-thymidine was pulsed for the final 8 hours of a 3-day culture.

HoxB4 ES cells = experiment: Differentiation of HoxB4 ES cells on OP9 stroma in M2 cytokine mix with added cytokines, FACS; format: cell-based, mouse
Protocol: Next, EB-derived cells were subjected to further differentiation by co-culturing them with OP9 stroma, an M-CSF-deficient cell line that has been widely used for in vitro differentiation of ES cells. For this, day 6 EBs (except otherwise specified) were trypsinized, and dissociated cells were seeded onto semiconfluent OP9 monolayers (irradiated immediately before coculture) at a density of 1×10^5/ml (2 ml/well, 6-well plate), and cultured in medium containing IMDM, 15% FCS (BenchMark, Gemcell), 2 mM L-glutamine, 100 U/mL penicillin and 100 μg/mL streptomycin, 1 ug/ml doxycycline, 1.5×10^−4M MTG, plus M1 cytokine mix composed of 1% c-kit Ligand (KL; CM), […] murine IL-6, and 0.5% WEHI (IL-3, CM). 2 days later, the medium was removed and replaced with 3 ml of fresh medium containing M2 cytokine mix consisting of 1% KL supernant, 0.5% murine thrombopoietin (TPO, CM), 40 ng/ml murine VEGF, 50 ng/ml murine Flt-3L or with medium containing M2 plus 10 ng/ml murine M-CSF (or M2+M-CSF) (all mouse recombinant cytokines were purchased from Peprotec Inc.), and medium was changed every other day thereafter. Unless otherwise specified, non-adherent and loosely attached cells were harvested after 10 days coculture in M2+M-CSF and used for morphologic, phenotypic, developmental, and functional analysis.
To enhance the production of ES cell-derived myeloid cells, additional cytokines were tested, including the colony-stimulating factor family members M-CSF and GM-CSF. […] For experiments in FIGS. 1C and D, Hoxb4 ES cells were differentiated with the same procedure as described in FIG. 1A, but in the last step cells were cultured for 10 day in M2 or M2 supplanted with M-CSF or GM-CSF (FIG. 1C) or M2 plus various concentration of M-CSF (FIG. 1D).

[2] = cytokine added to M2 cultures, 10 days

For `N=C(NO)NCCC[C@H](N)C(=O)O` [NOHA], the “interference with suppressive activity of HSC-MDSC or TD-MDSC” value ([1]; 500 μM, MDSC:splenocyte 1:2, P>0.05) was “did not interfere significantly; also recorded: minimal effects”.

`CNC(=N)NCCC[C@H](N)C(=O)O` [L-NMMA, N^G-monomethyl-L-arginine] was tested, and the “reversal of MDSC suppression of T cells” value ([1]; 5 μM, MDSC:splenocyte 1:2, P<0.05 HSC MDSC, P<0.01 TD-MDSC) was “substantially reversed” and the “reversal of suppression of HS- and TD-MDSCs against T-cell proliferation” value ([1]; various concentrations, dose-dependent manner) was “partially but significantly reversed”.

B1: granulocyte macrophage colony stimulating factor (protein, UniProt P01587 18-141, looked up)
Granulocyte-macrophage …: APTRSPITVTRPWKHVEAIKEALNLLDDMPVTLNEEVEVVSNEFSFKKLTCVQTRLKIFEQGLRGNFTKLKGALNMTASYYQTYCPPTPETDCETQVTTYADFIDSLKTFLTDIPFECKKPGQK
notes: colony-stimulating factor family cytokine added to M2 cultures
B1 was tested, and the “change of CD115+Ly-6C^+ cells” value (HoxB4 ES cells; [2]) was “dramatic decrease” and the “change of CD115^−Ly-6C^+ cells” value (HoxB4 ES cells; [2]) was “marked increase”.

B2: macrophage colony-stimulating factor (protein, UniProt P07141 33-552, looked up)
Macrophage colony-stimulating …: KEVSEHCSHMIGNGHLKVLQQLIDSQMETSCQIAFEFVDQEQLDDPVCYLKKAFFLVQDIIDETMRFKDNTPNANATERLQELSNNLNSCFTKDYEEQNKACVRTFHETPLQLLEKIKNFFNETKNLLEKDWNIFTKNCNNSFAKCSSRDVVTKPDCNCLYPKATPSSDPASASPHQPPAPSMAPLAGLAWDDSQRTEGSSLLPSELPLRIEDPGSAKQRPPRSTCQTLESTEQPNHGDRLTEDSQPHPSAGGPVPGVEDILESSLGTNWVLEEASGEASEGFLTQEAKFSPSTPVGGSIQAETDRPRALSASPFPKSTEDQKPVDITDRPLTEVNPMRPIGQTQNNTPEKTDGTSTLREDHQEPGSPHIATPNPQRVSNSATPVAQLLLPKSHSWGIVLPLGELEGKRSTRDRRSPAELEGGSASEGAARPVARFNSIPLTDTGHVEQHEGSSDPQIPESVFHLLVPGIILVLLTVGGLLFYKWKWRSHRDPQTLDSSVGRPEDSSLTQDEDRQVELPV
notes: murine recombinant cytokine added to M2 cocktail
For B2, the “production of both CD115^+ populations” value (HoxB4 ES cells; M2 plus cytokine, 10 days, dose-dependent) was “significantly augmented”, the “increase of frequency of both CD115 positive populations” value (HoxB4 ES cells; added along with M2) was “over 2 fold” and the “percentages of CD115^+ cells” value (HoxB4 ES cells; higher concentration, 20 ng/ml) was “decreased”.
